From the Human Domainome abundance scans (Beltran et al. 2025) come the findings set out here.

First the molecules themselves.
B1: TOX high mobility group box family member 3, residues 256 to 323; numbered along this chain, O15405 (parent)
chain: QKPVSAYALFFRDTQAAIKGQNPNATFGEVSKIVASMWDSLGEEQKQVYKRKTEAAKKEYLKALAAYR

± gives the uncertainty stated by the source.

The data set covers variants of B1. The data set can be described thus: abundance fitness (aPCA) (normalised: wild type 0, dead -1); higher = more abundant; growth selection in yeast, the domain comes from the species named. The conditions noted are these: Homo sapiens.
Take QKPISAYALFFRDTQAAIKGQNPNATFGEVSKIVASMWDSLGEEQKQVYKRKTEAAKKEYLKALAAYR [V4I]: the abundance fitness was 0.091 ± 0.072.
The same measure for QKPMSAYALFFRDTQAAIKGQNPNATFGEVSKIVASMWDSLGEEQKQVYKRKTEAAKKEYLKALAAYR [V4M]: 0.159 ± 0.082.
The same measure for QKPFSAYALFFRDTQAAIKGQNPNATFGEVSKIVASMWDSLGEEQKQVYKRKTEAAKKEYLKALAAYR [V4F]: -0.148 ± 0.078; for QKPPSAYALFFRDTQAAIKGQNPNATFGEVSKIVASMWDSLGEEQKQVYKRKTEAAKKEYLKALAAYR [V4P]: -0.001 ± 0.077.
As to QKPWSAYALFFRDTQAAIKGQNPNATFGEVSKIVASMWDSLGEEQKQVYKRKTEAAKKEYLKALAAYR [V4W], the abundance fitness is -0.331 ± 0.063.
Consider QKPNSAYALFFRDTQAAIKGQNPNATFGEVSKIVASMWDSLGEEQKQVYKRKTEAAKKEYLKALAAYR [V4N], for which the abundance fitness was 0.02 ± 0.1.
The same measure for QKPQSAYALFFRDTQAAIKGQNPNATFGEVSKIVASMWDSLGEEQKQVYKRKTEAAKKEYLKALAAYR [V4Q]: -0.073 ± 0.058.
As for CKPVSAYALFFRDTQAAIKGQNPNATFGEVSKIVASMWDSLGEEQKQVYKRKTEAAKKEYLKALAAYR [Q1C], the abundance fitness is -0.362 ± 0.14.
The result for WKPVSAYALFFRDTQAAIKGQNPNATFGEVSKIVASMWDSLGEEQKQVYKRKTEAAKKEYLKALAAYR [Q1W] reads -0.282 ± 0.11.
For HKPVSAYALFFRDTQAAIKGQNPNATFGEVSKIVASMWDSLGEEQKQVYKRKTEAAKKEYLKALAAYR [Q1H], the abundance fitness was 0.119 ± 0.09.
Take KKPVSAYALFFRDTQAAIKGQNPNATFGEVSKIVASMWDSLGEEQKQVYKRKTEAAKKEYLKALAAYR [Q1K]: the abundance fitness was 0.247 ± 0.15.
Regarding FKPVSAYALFFRDTQAAIKGQNPNATFGEVSKIVASMWDSLGEEQKQVYKRKTEAAKKEYLKALAAYR [Q1F], the abundance fitness is -0.088 ± 0.13.
For TKPVSAYALFFRDTQAAIKGQNPNATFGEVSKIVASMWDSLGEEQKQVYKRKTEAAKKEYLKALAAYR [Q1T], the abundance fitness amounted to 0.012 ± 0.094.
On to LKPVSAYALFFRDTQAAIKGQNPNATFGEVSKIVASMWDSLGEEQKQVYKRKTEAAKKEYLKALAAYR [Q1L], for which the abundance fitness is -0.124 ± 0.072.
The result for MKPVSAYALFFRDTQAAIKGQNPNATFGEVSKIVASMWDSLGEEQKQVYKRKTEAAKKEYLKALAAYR [Q1M] reads 0.137 ± 0.13; that for RKPVSAYALFFRDTQAAIKGQNPNATFGEVSKIVASMWDSLGEEQKQVYKRKTEAAKKEYLKALAAYR [Q1R], -0.087 ± 0.06.
The result for GKPVSAYALFFRDTQAAIKGQNPNATFGEVSKIVASMWDSLGEEQKQVYKRKTEAAKKEYLKALAAYR [Q1G] reads 0.107 ± 0.088; that for IKPVSAYALFFRDTQAAIKGQNPNATFGEVSKIVASMWDSLGEEQKQVYKRKTEAAKKEYLKALAAYR [Q1I], -0.035 ± 0.11; that for YKPVSAYALFFRDTQAAIKGQNPNATFGEVSKIVASMWDSLGEEQKQVYKRKTEAAKKEYLKALAAYR [Q1Y], 0.123 ± 0.073.
The same measure for AKPVSAYALFFRDTQAAIKGQNPNATFGEVSKIVASMWDSLGEEQKQVYKRKTEAAKKEYLKALAAYR [Q1A]: -0.474 ± 0.16; for NKPVSAYALFFRDTQAAIKGQNPNATFGEVSKIVASMWDSLGEEQKQVYKRKTEAAKKEYLKALAAYR [Q1N]: 0.271 ± 0.15.
In the case of SKPVSAYALFFRDTQAAIKGQNPNATFGEVSKIVASMWDSLGEEQKQVYKRKTEAAKKEYLKALAAYR [Q1S], the abundance fitness is -0.386 ± 0.16.
The result for QLPVSAYALFFRDTQAAIKGQNPNATFGEVSKIVASMWDSLGEEQKQVYKRKTEAAKKEYLKALAAYR [K2L] reads -0.428 ± 0.066; that for QCPVSAYALFFRDTQAAIKGQNPNATFGEVSKIVASMWDSLGEEQKQVYKRKTEAAKKEYLKALAAYR [K2C], -0.434 ± 0.13.
Take QSPVSAYALFFRDTQAAIKGQNPNATFGEVSKIVASMWDSLGEEQKQVYKRKTEAAKKEYLKALAAYR [K2S]: the abundance fitness is 0.069 ± 0.05.
The result for QIPVSAYALFFRDTQAAIKGQNPNATFGEVSKIVASMWDSLGEEQKQVYKRKTEAAKKEYLKALAAYR [K2I] reads -0.003 ± 0.043.
On to QAPVSAYALFFRDTQAAIKGQNPNATFGEVSKIVASMWDSLGEEQKQVYKRKTEAAKKEYLKALAAYR [K2A], for which the abundance fitness was -0.264 ± 0.076.
As to QMPVSAYALFFRDTQAAIKGQNPNATFGEVSKIVASMWDSLGEEQKQVYKRKTEAAKKEYLKALAAYR [K2M], the abundance fitness is -0.335 ± 0.083.
Regarding QWPVSAYALFFRDTQAAIKGQNPNATFGEVSKIVASMWDSLGEEQKQVYKRKTEAAKKEYLKALAAYR [K2W], the abundance fitness was -0.781 ± 0.15.
On to QVPVSAYALFFRDTQAAIKGQNPNATFGEVSKIVASMWDSLGEEQKQVYKRKTEAAKKEYLKALAAYR [K2V], for which the abundance fitness is -0.201 ± 0.059.
On to QGPVSAYALFFRDTQAAIKGQNPNATFGEVSKIVASMWDSLGEEQKQVYKRKTEAAKKEYLKALAAYR [K2G], for which the abundance fitness is -0.344 ± 0.05.
On to QHPVSAYALFFRDTQAAIKGQNPNATFGEVSKIVASMWDSLGEEQKQVYKRKTEAAKKEYLKALAAYR [K2H], for which the abundance fitness is -0.012 ± 0.12.
Take QRPVSAYALFFRDTQAAIKGQNPNATFGEVSKIVASMWDSLGEEQKQVYKRKTEAAKKEYLKALAAYR [K2R]: the abundance fitness is -0.273 ± 0.064.
With QQPVSAYALFFRDTQAAIKGQNPNATFGEVSKIVASMWDSLGEEQKQVYKRKTEAAKKEYLKALAAYR [K2Q], the abundance fitness was -0.337 ± 0.14.
Regarding QTPVSAYALFFRDTQAAIKGQNPNATFGEVSKIVASMWDSLGEEQKQVYKRKTEAAKKEYLKALAAYR [K2T], the abundance fitness is -0.294 ± 0.081.
QPPVSAYALFFRDTQAAIKGQNPNATFGEVSKIVASMWDSLGEEQKQVYKRKTEAAKKEYLKALAAYR [K2P]: the abundance fitness is -0.267 ± 0.085.
The same measure for QFPVSAYALFFRDTQAAIKGQNPNATFGEVSKIVASMWDSLGEEQKQVYKRKTEAAKKEYLKALAAYR [K2F]: -0.083 ± 0.13; for QDPVSAYALFFRDTQAAIKGQNPNATFGEVSKIVASMWDSLGEEQKQVYKRKTEAAKKEYLKALAAYR [K2D]: -0.311 ± 0.14; for QNPVSAYALFFRDTQAAIKGQNPNATFGEVSKIVASMWDSLGEEQKQVYKRKTEAAKKEYLKALAAYR [K2N]: -0.005 ± 0.1.
The same measure for QEPVSAYALFFRDTQAAIKGQNPNATFGEVSKIVASMWDSLGEEQKQVYKRKTEAAKKEYLKALAAYR [K2E]: -0.464 ± 0.11.
